Data on one molecule can be found in US20210380651A1 (SIOLTA THERAPEUTICS, published 2021).

In this test the target is T1, IgE-Fc protein having the amino acid sequence set forth in SEQ ID NO: 5 (murine, UniProt P06336 91-421, glycosylated (fully glycosylated IgE-Fc)).
T1 construct: Made in HEK293T cells; also called murine IgE-Fc; single domain IgE-Fc; not shown: TEV-His tag (detected with anti-His antibodies)
T1 sequence: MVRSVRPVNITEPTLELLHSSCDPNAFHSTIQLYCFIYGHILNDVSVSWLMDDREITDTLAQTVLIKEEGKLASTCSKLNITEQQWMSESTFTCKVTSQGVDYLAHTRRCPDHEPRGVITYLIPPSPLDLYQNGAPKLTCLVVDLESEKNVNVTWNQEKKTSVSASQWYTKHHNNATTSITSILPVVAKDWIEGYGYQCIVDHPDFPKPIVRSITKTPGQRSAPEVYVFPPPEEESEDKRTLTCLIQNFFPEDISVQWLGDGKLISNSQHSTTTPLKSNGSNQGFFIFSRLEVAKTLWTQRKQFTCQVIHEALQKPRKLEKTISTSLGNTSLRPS
As to the kind of experiment: flow cytometry on RBL-2H3 cells, 30 min, APC anti-His detection. Here is the method:
Cells of the histamine-releasing rat cell line RBL-2H3 and human peripheral blood mononuclear cells (PBMCs) were treated with the IgE-Fc protein (purified) having the amino acid sequence set forth in SEQ ID NO: 5 and the IgG-Fc-IgE-Fc fusion protein (unpurified, obtained from cell culture supernatant) having the amino acid sequence set forth in SEQ ID NO: 12 for 30 min. Cells were then thoroughly washed and stained with allophycocyanin (APC) conjugated anti-His antibodies and subsequently analyzed by flow cytometry. Anti-His antibodies detected Fc proteins that were bound to the cell surface due to their specific interaction with Fc epsilon Receptor I (FcεRI) and Fc gamma Receptor IIB (FcγRIIB), respectively. IgG-Fc-IgE-Fc proteins were able to bind to both the rat basophil cell line RBL-2H3 as well as to human PBMCs (comprised about 50-70% […], 10-25% T cells, and 20-30% of cells expressing FcgRIIB), even in very low concentrations in which the IgG-Fc-IgE-Fc fusion protein was present (approximately 0.05 mg/mL) in cell culture supernatants compared to purified and highly concentrated IgE-Fc proteins (approximately 1 mg/mL).
A general note: A flow cytometer gives signals particle by particle.

B1: Fc epsilon Receptor I (FcεRI) on cells of the rat basophil cell line RBL-2H3 (receptor, UniProt P12371 24-245, looked up)
chain: ATQKSVVSLDPPWIRILTGDKVTLICNGNNSSQMNSTKWIHNDSISNVKSSHWVIVSATIQDSGKYICQKQGFYKSKPVYLNVMQEWLLLQSSADVVLDNGSFDIRCRSWKKWKVHKVIYYKDDIAFKYSYDSNNISIRKATFNDSGSYHCTGYLNKVECKSDKFSIAVVKDYTIEYRWLQLIFPSLAVILFAVDTGLWFSTHKQFESILKIQKTGKGKKKG
notes: whole, on cells; the receptor on cells also has beta and gamma chains; also called FceRI; Fc epsilon receptors
As to B1, the binding result is “binds”.
